# Results from paper PMC12245071.
# Target: Bacteriophage T4 capsid, major capsid protein gp23* (bacteriophage T4)
# Experiment: co-sedimentation
row,Substance,copies per capsid (copies per capsid)
1,Soc-SpyCatcher displayed on the T4 phage capsid (T4-SpyCatcher phage) (designed binder),205
2,M2e-Hoc fusion (influenza M2e peptide on the tip of the T4 Hoc fiber),90
